Results published in patent US20220119464A1.

Target: biotinylated D-form of SARS-CoV-2 HR1 (SARS-CoV-2)

**Q.** D-form of EK1 (peptide) was tested. Which Kd did it give?
**A.** 32 nM
